Experimental data taken from US20200270301A1 (UBIPROTEIN, published 2020).

Target: T1, HA-ubiquitin (expressed from pMT123-HA-ubiquitin) (UniProt P0CG48 1-76)
T1 construct: Co-expressed in HEK 293T cells and detected with anti-HA after anti-myc immunoprecipitation; It attaches covalently (isopeptide bond, polyubiquitin chains); P0CG48 is the polyubiquitin-C precursor; a single ubiquitin unit is 76 residues; not shown: HA tag of the pMT123-HA-ubiquitin plasmid
Assay: covalent ubiquitination in HEK 293T cells: anti-myc IP, anti-HA Western blot

binding result: binds
B1: myc-EGF WT (expressed from pcDNA3-myc-EGF WT) (ligand)
chain: NSDSECPLSHDGYCLHDGVCMYIEALDKYACNCVVGYIGERCQYRDLKWWELR
modifications: not fully specified
notes: Expressed inside HEK 293T cells; also called human EGF; not shown: myc tag of the pcDNA3-myc vector
